Laboratory results: IntAct's records for PubMed 22940691

B1: Endoglin (Homo sapiens), P17813 (parent)
chain: MDRGTLPLAVALLLASCSLSPTSLAETVHCDLQPVGPERGEVTYTTSQVSKGCVAQAPNAILEVHVLFLEFPTGPSQLELTLQASKQNGTWPREVLLVLSVNSSVFLHLQALGIPLHLAYNSSLVTFQEPPGVNTTELPSFPKTQILEWAAERGPITSAAELNDPQSILLRLGQAQGSLSFCMLEASQDMGRTLEWRPRTPALVRGCHLEGVAGHKEAHILRVLPGHSAGPRTVTVKVELSCAPGDLDAVLILQGPPYVSWLIDANHNMQIWTTGEYSFKIFPEKNIRGFKLPDTPQGLLGEARMLNASIVASFVELPLASIVSLHASSCGGRLQTSPAPIQTTPPKDTCSPELLMSLIQTKCADDAMTLVLKKELVAHLKCTITGLTFWDPSCEAEDRGDKFVLRSAYSSCGMQVSASMISNEAVVNILSSSSPQRKKVHCLNMDSLSFQLGLYLSPHFLQASNTIEPGQQSFVQVRVSPSVSEFLLQLDSCHLDLGPEGGTVELIQGRAAKGNCVSLLSPSPEGDPRFSFLLHFYTVPIPKTGTLSCTVALRPKTGSQDQEVHRTVFMRLNIISPDLSGCTSKGLVLPAVLGITFGAFLIGALLTAALWYIYSHTRSPSKREPVVAVAAPASSESSSTNHSIGSTQSTPCSTSSMA

Variants of: B1
Settings: with arrb2_human ARRB2, P32121
Chain of arrb2_human ARRB2, P32121 (P32121 whole entry): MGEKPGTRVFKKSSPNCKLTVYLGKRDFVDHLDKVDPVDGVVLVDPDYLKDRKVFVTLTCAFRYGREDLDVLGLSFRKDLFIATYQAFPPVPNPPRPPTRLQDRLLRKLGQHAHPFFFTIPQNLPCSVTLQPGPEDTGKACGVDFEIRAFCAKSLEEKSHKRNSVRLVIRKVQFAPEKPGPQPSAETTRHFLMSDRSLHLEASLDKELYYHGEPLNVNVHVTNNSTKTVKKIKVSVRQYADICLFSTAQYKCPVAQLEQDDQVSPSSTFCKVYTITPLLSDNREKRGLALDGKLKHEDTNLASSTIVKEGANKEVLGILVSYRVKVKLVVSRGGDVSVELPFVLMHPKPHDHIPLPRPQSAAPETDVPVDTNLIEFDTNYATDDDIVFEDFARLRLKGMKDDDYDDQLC

Variant | effect of a mutation on the interaction
T650A | disrupting interaction
